Source: patent publication US20210347833A1 (WISYS TECHNOLOGY FOUNDATION, published 2021)

Biological target: the molecule itself
Assay: size-exclusion chromatography, titration of apoSFP with biliverdin; self-association of subunits (apo protein is monomeric, no dimer fraction seen)

B1: Recombinant wild-type Sandercyanin fluorescent protein (SFP) lacking the signal peptide (other)
chain: MFIKPGRCPKPAVQEDFDAARYLGVWYDIQRLPNKFQKGECATATYSLSPGVGFSVFNRERLANGTIKSVIGSAIAEDPCEPAKLQFFHENAAPVPYWVLSTDYDNYALVYSCINLGASHAAYASIVSRQPTLPEETIKKLQGTMSSFGVGVDTLLTTNQDAAYCSAMNQ
notes: the apo protein is a monomer in solution; also called wtSFP; wild-type SFP
Does B1 bind?
Result: binds
